# Measurements as given in US20020086312A1 (IMMUNEX, published 2002).
# T1: murine RANK, endogenous on RAW 264.7 cells (murine) (UniProt O35305)
# T1 sequence: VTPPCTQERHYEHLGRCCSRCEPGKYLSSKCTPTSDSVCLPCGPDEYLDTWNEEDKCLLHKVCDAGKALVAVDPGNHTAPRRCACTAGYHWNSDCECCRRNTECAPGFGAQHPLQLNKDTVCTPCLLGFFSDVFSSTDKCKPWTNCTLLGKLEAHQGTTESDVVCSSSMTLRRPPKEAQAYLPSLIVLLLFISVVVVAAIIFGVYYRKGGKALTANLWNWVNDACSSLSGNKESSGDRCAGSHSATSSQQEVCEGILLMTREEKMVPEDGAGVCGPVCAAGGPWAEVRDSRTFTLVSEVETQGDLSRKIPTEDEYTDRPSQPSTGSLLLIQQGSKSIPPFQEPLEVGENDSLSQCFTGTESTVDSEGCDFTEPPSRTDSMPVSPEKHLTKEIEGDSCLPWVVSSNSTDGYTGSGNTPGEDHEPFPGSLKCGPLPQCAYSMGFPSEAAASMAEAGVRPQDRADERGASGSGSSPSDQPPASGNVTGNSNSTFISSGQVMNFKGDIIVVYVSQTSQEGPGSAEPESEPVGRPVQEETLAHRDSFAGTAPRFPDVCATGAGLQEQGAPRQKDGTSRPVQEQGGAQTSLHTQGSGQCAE
# T2: full-length human RANK (SEQ ID NO:2) (human, UniProt Q9Y6Q6 29-616)
# T2 sequence: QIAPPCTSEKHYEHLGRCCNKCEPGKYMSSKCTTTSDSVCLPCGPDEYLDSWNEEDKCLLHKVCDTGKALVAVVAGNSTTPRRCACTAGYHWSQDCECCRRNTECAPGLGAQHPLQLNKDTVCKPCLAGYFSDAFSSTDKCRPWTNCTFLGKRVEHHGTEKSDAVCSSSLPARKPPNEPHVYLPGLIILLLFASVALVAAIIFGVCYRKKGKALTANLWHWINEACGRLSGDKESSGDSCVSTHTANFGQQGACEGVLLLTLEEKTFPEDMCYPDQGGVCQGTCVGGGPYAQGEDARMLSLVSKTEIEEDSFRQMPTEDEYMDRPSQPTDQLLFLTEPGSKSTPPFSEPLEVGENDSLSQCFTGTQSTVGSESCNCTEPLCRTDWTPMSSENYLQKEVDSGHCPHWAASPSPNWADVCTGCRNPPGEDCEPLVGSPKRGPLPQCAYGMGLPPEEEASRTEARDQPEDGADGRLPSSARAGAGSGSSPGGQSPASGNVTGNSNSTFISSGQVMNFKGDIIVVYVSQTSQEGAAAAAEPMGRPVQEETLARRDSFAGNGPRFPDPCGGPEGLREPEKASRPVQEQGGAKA
# B1: human full-length RANK-L (SEQ ID NO:6) (ligand)
# chain: MRRASRDYTKYLRGSEEMGGGPGAPHEGPLHAPPPPAPHQPPAASRSMFVALLGLGLGQVVCSVALFFYFRAQMDPNRISEDGTHCIYRILRLHENADFQDTTLESQDTKLIPDSCRRIKQAFQGAVQKELQHIVGSQHIRAEKAMVDGSWLDLAKRSKLEAQPFAHLTINATDIPSGSHKVSLSSWYHDRGWAKISNMTFSNGKLIVNQDGFYYLYANICFRHHETSGDLATEYLQLMVYVTKTSIKIPSSHTLMKGGSTKYWSGNSEFHFYSINVGGFFKLRSGEEISIEVSNPSLLDPDQDATYFGAFKVRDID
# Key:
# [1] = target: T1, murine RANK, endogenous on RAW 264.7 cells (murine); test: cell-based or functional assay
# [2] = target: T2, full-length human RANK (SEQ ID NO:2); test: cell-based or functional assay
molecule,measurement,setting,value
leucine zipper form of murine RANK-L (from UniProt O35235 70-316) (ligand),"induction of the MMP-9/luciferase promoter in transfected RAW 264.7 cells, 1 ug/ml for 18 hours",[1],10 to 15 fold
same,"mouse MMP-9 mRNA in RAW 264.7 cells by quantitative RT-PCR, 200 ng/ml",[1],> 350 fold
same,"mouse TRAP mRNA in RAW 264.7 cells by quantitative RT-PCR, 200 ng/ml",[1],> 250 fold
"murine RANK-L (mRANK-L, 200 ng/ml in the differentiation medium) (from UniProt O35235 70-316) (ligand)","32P incorporation into a c-src-specific substrate by extracts of RANK -/- spleen cells expressing wild-type RANK, after differentiation in CSF-1 and mRANK-L",[2],15 fold
same,"F-actin ring formation (fluorescent phalloidin staining) in RANK -/- cells expressing wild-type RANK, cultured 5 days with CSF-1 and mRANK-L (% of the cells)",[2],> 50
B1,"luciferase reporter expression from the human TRAP promoter, co-transfected 293/EBNA cells",[2],~1.5 fold
same,"luciferase reporter expression from the mouse TRAP promoter, co-transfected 293/EBNA cells",[2],~4 fold
same,"luciferase reporter expression from the murine MMP-9 promoter, co-transfected 293/EBNA cells",[2],2.5 fold
